Test results from paper PMC12485133, “An active allosteric mechanism in ASAP1-mediated Arf1 GTP hydrolysis redefines PH domain function” (Nature Communications, 2025).
Each block holds one binder with its values, some of them ahead of it.

Legend:
[1] = molecular target: T1, ASAP1 ZA domain (Arf GAP domain and ankyrin repeats), residues 447-724 of ASAP1 (UniProt Q9QWY8 447-724); assay: intermolecular PRE NMR; Cys159-MTSL myrArf1 (non-hydrolysable GTP analog), alone or in complex with wt PH, on nanodiscs; 100 μM Arf or Arf:PH and 100 μM isotopically labeled ZA; settings: both partners purified
T1 construct: Mouse is stated only for the PH domain constructs; the same residue numbers are used; Isotopically labelled in the PRE experiment; also called ^ΔPHZA; isolated ZA domain
T1 sequence (looked up): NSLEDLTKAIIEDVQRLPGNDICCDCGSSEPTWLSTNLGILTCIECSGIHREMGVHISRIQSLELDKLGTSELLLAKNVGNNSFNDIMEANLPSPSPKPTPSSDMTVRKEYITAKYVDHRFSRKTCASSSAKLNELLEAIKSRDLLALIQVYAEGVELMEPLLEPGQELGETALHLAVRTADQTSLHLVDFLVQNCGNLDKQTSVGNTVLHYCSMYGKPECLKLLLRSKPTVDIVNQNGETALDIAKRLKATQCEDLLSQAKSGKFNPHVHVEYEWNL

[2] = molecular target: T2, myrArf1 Glu54Ala (human, UniProt P84077 1-181, Glu54Ala, N-terminal myristoyl); assay: not stated; binding of PH variants and Arf variants compared with wild type (Fig. SI8 and Table SI1); the method is not given; settings: both partners purified
T2 construct: human Arf1, Uniprot P84077; also called Glu54Ala in Arf; source: E. coli BL21 (DE3), co-expressed with yeast NMT, purified

[3] = molecular target: T2, myrArf1 Glu54Ala; assay: cell-based or functional assay
[4] = molecular target: T3, MTSL-tagged myrArf1 K38C (Cys159 mutated to Ala), GTPγS, on nanodiscs (human, UniProt P84077 1-181, Cys159 mutated to Ala | K38C, N-terminal myristoyl; MTSL nitroxide spin label on Cys38 via a disulfide bond); assay: intermolecular PRE NMR; 60 μM protiated MTSL-labelled myrArf1 variants on nanodiscs, 50 μM methyl-labelled ASAP1 PH, 25 °C; paramagnetic against ascorbate-reduced sample; settings: both partners purified
T3 construct: human Arf1, Uniprot P84077, mono-cysteine variant; source: E. coli BL21 Star (DE3), co-expressed with yeast NMT, purified; spin-labelled on nanodiscs

[5] = molecular target: T4, MTSL-tagged myrArf1 with Lys73 replaced by Cys (Cys159 mutated to Ala), GTPγS, on nanodiscs (human, UniProt P84077 1-181, Cys159 mutated to Ala | Lys73 replaced with Cys, N-terminal myristoyl; MTSL nitroxide spin label on Cys73 via a disulfide bond); assay: as above; settings: both partners purified
T4 construct: human Arf1, Uniprot P84077, mono-cysteine variant; also called spin-labeled myrArf1 variant (Lys73 to Cys); source: E. coli BL21 Star (DE3), co-expressed with yeast NMT, purified; spin-labelled on nanodiscs

[6] = molecular target: T5, N-myristoylated human Arf1 bound to GTPγS, anchored on nanodiscs (myrArf1·GTPγS) (human, UniProt P84077 1-181, N-terminal myristoyl); assay: not stated; binding of PH variants and Arf variants compared with wild type (Fig. SI8 and Table SI1); the method is not given; settings: both partners purified
T5 construct: human Arf1, Uniprot P84077; also called Arf·GTP

[7] = molecular target: T5, N-myristoylated human Arf1 bound to …; assay: cell-based or functional assay

T2 sequence (P84077 whole entry E54A): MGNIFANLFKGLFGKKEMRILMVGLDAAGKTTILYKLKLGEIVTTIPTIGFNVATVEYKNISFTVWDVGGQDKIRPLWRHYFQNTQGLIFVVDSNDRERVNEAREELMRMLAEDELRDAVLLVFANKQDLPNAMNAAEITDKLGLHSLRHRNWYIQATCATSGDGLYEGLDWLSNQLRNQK
T5 sequence (P84077 whole entry): as the sequence (P84077 whole entry E54A) above, with A54E counted along it
T4 sequence (P84077 other isoform, or with tags, fused parts or gaps with the stated changes): as the sequence (P84077 whole entry E54A) above, with A54E, K73C, C159A counted along it
T3 sequence (P84077 other isoform, or with tags, fused parts or gaps with the stated changes): as the sequence (P84077 whole entry E54A) above, with K38C, A54E, C159A counted along it

Kd [1]: 100 to 1000 µM
B1: Cys159-MTSL tagged myrArf1 bound to a non-hydrolysable GTP analog, on nanodiscs (natural protein)
chain: not shown
modifications: N-terminal myristoyl; MTSL nitroxide spin label on Cys159
notes: human Arf1, Uniprot P84077, native Cys159 spin-labelled; source: E. coli BL21 Star (DE3), co-expressed with yeast NMT, purified; spin-labelled on nanodiscs

fold reduction of binding against wild type [2]: 2 fold | fold decrease in GAP activity on Arf1 Glu54Ala compared with wild type (C50 of PZA, Fig. 7C) [3]: 70 fold | binding result [4]: binds | binding result [5]: binds
B2: wild-type ASAP1 PH domain, [325-451]ASAP1 (domain or fragment, mouse, UniProt Q9QWY8 325-451, looked up)
chain: GGYSMHQLQGNKEYGSEKKGFLLKKSDGIRKVWQRRKCAVKNGILTISHATSNRQPAKLNLLTCQVKPNAEDKKSFDLISHNRTYHFQAEDEQDYIAWISVLTNSKEEALTMAFRGEQSTGENSLED
notes: mouse ASAP1, PH domain with its N-terminal extension, residues 325-451; also called wt PH

fold weaker binding than wt PH [6]: 2 fold | fold decrease in GAP activity compared with PH [7]: 100 fold
B3: ΔN14 ASAP1 PH domain, [339-451]ASAP1 (domain or fragment, mouse, UniProt Q9QWY8 339-451, looked up)
chain: GSEKKGFLLKKSDGIRKVWQRRKCAVKNGILTISHATSNRQPAKLNLLTCQVKPNAEDKKSFDLISHNRTYHFQAEDEQDYIAWISVLTNSKEEALTMAFRGEQSTGENSLED
notes: mouse ASAP1, PH domain with shortened N-terminal extension, residues 339-451; tied by counting 14 residues from 325; also called ^ΔN14PH; source: E. coli BL21 Star (DE3) or BL21 (DE3), purified (HiTrap SP, SEC)
